What was measured:
[1] = target: CD45 of non-human primate (NHP), on cells in vivo (non-human primate (NHP); not stated further); test: in vivo receptor occupancy on T cells at 24 h after a single dose of 0.60 mg/kg in NHP, n=3
[2] = target: CD45 of non-human primate (NHP), on cells in vivo (non-human primate (NHP); not stated further); test: in vivo receptor occupancy in NHP at the minimum efficacious dose of 0.15 mg/kg
[3] = target: CD45 of non-human primate (NHP), on cells in vivo (non-human primate (NHP); not stated further); test: in vivo receptor occupancy on T cells at 24 h after a single dose of 0.30 mg/kg in NHP, n=6
[4] = target: CD45 of non-human primate (NHP), on cells in vivo (non-human primate (NHP); not stated further); test: in vivo receptor occupancy on T cells at 24 h after a single dose of 0.10 mg/kg in NHP, n=6; footnote: * % RO measured after ADC clearance
[5] = target: CD45 of non-human primate (NHP), on cells in vivo (non-human primate (NHP); not stated further); test: in vivo receptor occupancy on T cells at 24 h after a single dose of 0.20 mg/kg in NHP, n=3; footnote: * % RO measured after ADC clearance
[6] = target: CD45 of non-human primate (NHP), on cells in vivo (non-human primate (NHP); not stated further); test: in vivo receptor occupancy on T cells at 24 h after a single dose of 0.05 mg/kg in NHP, n=3; footnote: * % RO measured after ADC clearance

B1: anti-CD45 ADC comprising anti-CD45 Ab5 conjugated to DGN-549 via cysteines at amino acid 265 (EU numbering by Kabat) in the Fc region, protease-cleavable linker (antibody, human IgG1, kappa, L234A L235A, V domains shown)
VH: EVQLVESGGGLVQPGGSLRLSCAASGFTFEAYSMNWVRQAPGKGLEWVSYISLSGATIHYADSVKGRFTISRDNAKNSLYLQMNSLRAEDTAVYYCARGGQYYYTSSDYGEVAFDIWGQGTMVTVSS
VL: DIVMTQSPLSLPVTPGEPASISCRSSQSLVSSGYNYLDWYLQKPGQSPQLLIYFGSSRASGVPDRFSGSGSGTDFTLKISRVEAEDVGVYYCMQRRRTPWSFGGGTKVEIKR
modifications: DGN549 (IGN pseudo dimer) via a protease-cleavable linker on the engineered Cys at position 265 (EU numbering; D265C)
% Receptor Occupancy (T-cells @ 24h) [1]: 100% | receptor occupancy (RO) [2]: 5% | % Receptor Occupancy (T-cells @ 24h) [3]: 46% | % Receptor Occupancy (T-cells @ 24h) [4]: 4% | % Receptor Occupancy (T-cells @ 24h) [5]: 6% | % Receptor Occupancy (T-cells @ 24h) [6]: 2%

Reference: patent publication US20260102505A1, “ANTI-CD45-IGN ANTIBODY DRUG CONJUGATES AND USES THEREOF” (Vor Biopharma Inc., priority 2022, published 2026)
